Data reported in paper PMC11188089, “Structural basis for antibiotic transport and inhibition in PepT2, the mammalian proton-coupled peptide transporter” (Research Square, 2024).
Where two headings read alike, the source gives them in different places. One block for each molecule: values may come before it. Where a SMILES comes first, the peptide text is derived from it.

Key:
[1] = molecular target: Rattus norvegicus PepT2 (SLC15A2), proton-coupled peptide transporter (Rattus norvegicus) (UniProt Q63424)
[2] = molecular target: T1, PepT2 (Rattus norvegicus, UniProt Q63424); assay: inhibition of ^3H di-alanine uptake in PepT2 proteoliposomes; counterflow; SSM electrophysiology; format: biochemical; design: gene Slc15a2; purified rat PepT2 reconstituted into liposomes
T1 sequence (Q63424 1-729): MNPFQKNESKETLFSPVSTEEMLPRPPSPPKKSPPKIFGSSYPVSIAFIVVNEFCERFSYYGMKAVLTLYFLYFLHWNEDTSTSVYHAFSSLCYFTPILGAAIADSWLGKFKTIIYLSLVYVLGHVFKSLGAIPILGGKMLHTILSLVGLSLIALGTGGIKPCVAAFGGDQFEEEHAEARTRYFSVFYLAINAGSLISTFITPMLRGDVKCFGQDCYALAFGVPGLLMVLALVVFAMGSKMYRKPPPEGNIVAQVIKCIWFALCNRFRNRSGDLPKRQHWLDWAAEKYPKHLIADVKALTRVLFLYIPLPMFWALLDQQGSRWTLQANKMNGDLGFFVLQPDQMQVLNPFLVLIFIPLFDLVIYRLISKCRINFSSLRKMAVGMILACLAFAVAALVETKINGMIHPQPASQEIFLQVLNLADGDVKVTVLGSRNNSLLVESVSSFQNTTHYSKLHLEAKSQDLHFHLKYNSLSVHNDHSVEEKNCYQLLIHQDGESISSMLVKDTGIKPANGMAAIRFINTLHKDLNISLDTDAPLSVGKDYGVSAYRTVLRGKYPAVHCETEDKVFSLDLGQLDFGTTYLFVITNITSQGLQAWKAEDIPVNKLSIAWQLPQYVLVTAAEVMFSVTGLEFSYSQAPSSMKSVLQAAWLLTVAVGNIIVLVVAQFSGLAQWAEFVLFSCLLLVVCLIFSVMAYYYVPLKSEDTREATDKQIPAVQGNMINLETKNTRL

[3] = molecular target: T1, PepT2; design: gene Slc15a2
[4] = molecular target: T2, Rattus norvegicus PepT2 (SLC15A2), proton-coupled peptide transporter (Rattus norvegicus, UniProt Q63424); assay: cryo-EM structure; PepT2 after SEC (5-6 mg/ml, DDM:CHS) mixed with 1 mM antibiotic (cefadroxil, amoxicillin or cloxacillin) for one hour, then 1.2 molar excess of nanobody D8, on ice for at least 30 minutes; details: both partners purified
T2 construct: PepT2 (SLC15A2) from Rattus norvegicus; The extracellular domain (ECD) was in the protein but was not built in the deposited models; For the IC50 assay the same purified protein was reconstituted into POPE:POPG liposomes; The Addgene ids 167988 and 167989 are assigned to PepT2 and the nanobody by the order in the sentence; also called rat PepT2; RnPepT2; not shown: GFP, C-terminal, cleaved; His …

Molecule: C[C@H](N)C(=O)N[C@@H](C)C(=O)O [di-alanine] (H-Ala-Ala-OH)
IC50 [2]: 32 µM

B1: nanobody D8 (inhibitory nanobody against rat PepT2) (VHH)
VHH: QVQLVESGGGLVQPGGSLRLLCVASGRPFNDYDMGWFRQAPGKEREFVASISWSGRVTDYSDSMKGRCTVSRDNAKGTMFLQMSNLVPRDTAVYYCAAARRRWTFKATNTEEFYETWGQGTQVTVSS
notes: the nanobody was resolved in the structures solved here (PDB 9BIR, 9BIS, 9BIT, 9BIU); expression plasmid in Addgene; also called the nanobody
binding result [4]: binds

Now from value to molecule:

IC50 for inhibition of the uptake of radioactive (3H) di-alanine into rat PepT2 proteoliposomes [1]: 32 µM
Molecule: di-alanine peptide

IC50 [3]: 1000 µM
Molecule: Nc1nc(/C(=C/CC(=O)O)C(=O)N[C@@H]2C(=O)N3C(C(=O)O)=CCS[C@H]23)cs1 [ceftibuten]
